Source: patent US20210380994A1, “LACTOCOCCUS LACTIS EXPRESSION SYSTEM FOR DELIVERING PROTEINS EFFICACIOUS FOR THE TREATMENT OF EPITHELIAL BARRIER FUNCTION DISORDERS” (Second Genome, Inc., priority 2018, published 2021)

Key:
[1] = test system: Syrian Golden Hamsters, mucositis of the left buccal cheek pouch; assay: radiation-induced oral mucositis model; format: in vivo, hamster; settings: for % Days ≥3 (percent of animal days with a mucositis score ≥3): Vehicle 59.52%; for Days <3 (animal days with a mucositis score <3) / Days ≥3 (animal days with a mucositis score ≥3): through Day 28; for days of improvement in mucositis scores compared to the Vehicle control group: topical b.i.d.
Experimental: Forty-eight (48) male Syrian Golden Hamsters were used in the study.
Mucositis was induced by administering a single dose of radiation (40 Gy) directed to the left buccal cheek pouch at a rate of 2-2.5 Gy/min administered on Day 0. Radiation was generated with a 160 kilovolt potential (18.75-ma) source at a fecal distance of 10 cm, hardened with a 3.0 mm Al filtration system. Prior to irradiation, animals were anesthetized with an intraperitoneal injection of ketamine (160 mg/kg) and xylazine (8 mg/kg). The left buccal pouch was everted, fixed and isolated using a lead shield. Mucositis was evaluated clinically starting on Day 6 and continuing on alternate days until Day 28. The acute model has little systemic toxicity, resulting in few hamster deaths, thus permitting the use of smaller groups (n=7-8) for initial efficacy studies. It has abo been used to study specific mechanistic elements in the pathogenesis of mucositis.
The animals were divided into 6 treatment groups in which they were administered: Test agents (SG-11 or SG-11V5), a positive control (proprietary to Biomodels, LLC, Watertown, Mass.) or vehicle only were given by topical application to the left cheek pouch as detailed in Table 15 below.
On Day 0, morning dosing was performed at least 1 hour prior to irradiation and at least 1 hour post-irradiation (for PM dose). On Day 28, animals were euthanized and the left cheek pouch rom animals in Groups 1, and Groups 3-6 were excised, placed in a cryovial, snap frozen, and stored at −80° C. until shipment.
Starting on Day 6 and continuing every second day thereafter (Days 8, 10, 12, 14, 16, 18, 20, 22, 24, 26, 28) each animal was photographed and evaluated for mucositis scoring. For the evaluation of mucositis, the animals were anesthetized with an inhalation anesthetic and the left pouch everted. Mucositis was scored visually by comparison to a validated photographic scale (FIG. 37A), ranging from 0 for normal, to 5 for severe ulceration (clinical scoring). In descriptive terms, this scale is defined in Table 16.
A score of 1-2 is considered to represent a mild stage of the disease, whereas a score of […] is considered to indicate moderate to severe ulcerative mucositis. At the conclusion of the experiment, the photographs were randomly numbered and scored by two independent, trained observers who graded the images in blinded fashion using the above-described scale (blinded scoring). Hamsters reaching a mucositis severity score of 4 or higher received buprenorphine (0.5 mg/kg) SC twice a day for 48 hours or until score dropped below 4.
Statistical significance of observed differences was calculated using chi-squared analysis. The significance of differences observed between the control and treatment groups was evaluated by comparing the days with mucositis scores ≥3 and <3 between groups using chi-square analysis. The results of this analysis are shown in Table 17 far the entire study duration (through Day 28). Over the course of the study (Table 17), the percentage of animal days with a score of ≥3 in the Vehicle Group was 59.52%.

[2] = test system: human colonic epithelial cells (HCT8 enterocytes and HT29-MTX goblet cells); assay: trans-epithelial electrical resistance (TEER) assay, epithelial/monocyte co-culture disrupted by heat killed E. coli; format: cell-based
Experimental: Assays were performed as described below in trans-well plates where co-cultures of multiple cell types were performed utilizing a permeable membrane to separate cells. In the apical (top) chamber, human colonic epithelial cells, consisting of a mixture of enterocytes and goblet cells, were cultured until cells obtained tight junction formation and barrier function capacity as assessed by measurement of trans-epithelial electrical resistance (TEER). In the basolateral chamber, monocytes were cultured separately. Epithelial […] were primed with inflammatory cytokines. The assays measured the effect of a therapeutic protein, e.g., SG-11, on epithelial barrier function, muc2 gene expression, and production of cytokines.
Cell culture. The HCT8 human enterocyte cell line (ATCC Cat. No. CCL-244) was maintained in RPMI-1640 medium supplemented with 10% fetal bovine seam, 100 IU/ml penicillin, 100 ? g/ml streptomycin, 10 ? g/ml gentamicin and 0.25 μg/ml amphotericin (cRPMI). HT29-MTX human goblet cells (Sigma-Aldrich (St. Louis, Mo.; Cat. No. 12040401) were maintained in DMEM medium with 10% fetal bovine serum, 100 IU/ml penicillin, 100 ? g/ml streptomycin, 10 ? g/ml gentamicin and 0.25 μg/ml amphotericin (cDMEM). Epithelial cells were passaged by trypsinization and were used between 5 and 15 passages following thawing from liquid nitrogen stocks. U937 monocytes (ATCC Cat. No. 700928) were maintained in cRPMI medium as a suspension culture, and split by dilution as needed to maintain cells between 5×10^5 and 2×10^6 cell/ml. U937 cells were used up to passage 18 following thawing from liquid nitrogen stocks.
Epithelial cell culture. A mixture of HCT8 enterocytes and HT29-MTX goblet cells were plated at a 9:1 ratio, respectively, in the apical chamber of the transwell plate as described previously (Berget et al., 2017, Int J Mol Sci, 18:1573; Beduneau et al., 2014. Eur J Pharm Biopharm, 87:290-298). A total of 10^5 cells were plated in each well (9×10^4 HCT cells and 1×10^4 HT29-MTX cells per well). Epithelial cells were trypsinized from culture flasks and viable cells determined by trypan blue counting. The correct volumes of each cell type were combined in a single tube and centrifuged. The cell pellet was resuspended in cRPMI and added to the apical chamber of the transwell plate. Celle were cultured for 8 to 10 days at 37° C.+5% CO2, and media was changed every 2 days.
Monocyte culture. On day 6 of epithelial cell culture 2×10^5 cells/well U937 monocytes were plated into a 96 well receiver plate. Cells were cultured at 37° C.+5% CO2 and media was changed every 24 hours for four days.
Co-culture assay. Following 8-10 days of culture, 10 ng/ml IFN-© was added to the basolateral chamber of the transwell plate containing enterocytes, for 24 hours at 37° C.+5% CO2. After 24 hours, fresh cRPMI was added to the epithelial cell culture plate. TEER readings were measured after the IFN-© treatment and were used as the pre-treatment TEER value. SG-11 was then added to the apical chamber of the transwell plate at a final concentration of 1 ? g/ml (40 nM). The myosin light chain kinase (MLCK) inhibitor peptide 18 (BioTechne, Minneapolis, Minn.) was used at 50 nM as a positive control to prevent inflammation induced barrier disruption (Zolotarevsky et al., 2002, Gastroenterology. 123:163-172). […]

[3] = 0.75 mg/ml, 0.2 ml topical b.i.d., SG-11 Day 16, SG-11V5 Days 16 and 18, Vehicle 3.29
[4] = Example 12, 1 μg/ml (40 nM), 6 hours pre-incubation, SG-11 = SEQ ID NO:9, HK E. coli alone 78.6%, FIG. 17

B1: SG-11: Roseburia hominis protein comprising SEQ ID NO:3; tested as SEQ ID NO:5, SEQ ID NO:7 or FLAG-tagged SEQ ID NO:9 (protein, listed as Rosburia hominis)
chain: LEGEESVVYVGKKGVIASLDVETLDQSYYDETELKSYVDAEVEDYTAEHGKNAVKVESLKVEDGVAKLKMKYKTPEDYTAFNGIELYQGKVVASLAAGYVYDGEFARVEEGKVVGAATKQDIYSEDDLKVAIIRANTDVKVDGEICYVSCQNVKLTGKDSVSIRDGYYLETGSVTASVDVTGQESVGTEQLSGTEQMEMTGEPVNADDTEQTEAAAGDGSFETDVYTFIVYK
B1 was tested, and the “% Days ≥3 (percent of animal days with a mucositis score ≥3)” value ([1]; 0.75 mg/mL) was 50.00%, the “Days <3 (animal days with a mucositis score <3)” value ([1]; 0.75 mg/mL) was 96 and the “Days ≥3 (animal days with a mucositis score ≥3)” value ([1]; 0.75 mg/mL) was 96. For the same molecule, the “peak mean mucositis score (scale 0-5)” value [1, 3] was 3.25, the “days of improvement in mucositis scores compared to the Vehicle control group” value [1] was “one day of improvement” and the “TEER following disruption by HK E. coli” value [2, 4] was 89.5%. For the same molecule, the “TEER following disruption by HK E. coli” value ([2]; Example 15, 1 μg/ml, 6 hours pre-incubation, SG-11 = SEQ ID NO:9, HK E. coli alone 78.6%, FIG. 28) was 89.5%, the “TEER following disruption by HK E. coli” value ([2]; SG-11 1 μg/ml added 6 hours prior to HK E. coli, HK E. coli alone 53.5%, FIG. 1B) was 60.6% and the “TEER following disruption by HK E. coli” value ([2]; SG-11 (SEQ ID NO:5 or 9) 1 μg/ml (40 nM) added 30 minutes prior to HK E. coli, HK E. coli alone 55.8%, FIG. 1A) was 62%.

B2: SG-11V5: variant of SEQ ID NO:7 with N53S, N83S, C147V, C151S (protein)
chain: MLEGEESVVYVGKKGVIASLDVETLDQSYYDETELKSYVDAEVEDYTAEHGKSAVKVESLKVEDGVAKLKMKYKTPEDYTAFSGIELYQGKVVASLAAGYVYDGEFARVEEGKVVGAATKQDIYSEDDLKVAIIRANTDVKVDGEIVYVSSQNVKLTGKDSVSIRDGYYLETGSVTASVDVTGQESVGTEQLSGTEQMEMTGEPVNADDTEQTEAAAGDGSFETDVYTFIVYK
modifications: Artificial variant of SG-11 (N53S, N83S, C147V, C151S)
For B2, the “Days <3 (animal days with a mucositis score <3)” value ([1]; 0.075 mg/mL) was 106, the “Days ≥3 (animal days with a mucositis score ≥3)” value ([1]; 0.075 mg/mL) was 86 and the “peak mean mucositis score (scale 0-5)” value ([1]; 0.075 mg/ml topical b.i.d., Days 16 and 18) was 3.00. The “% Days ≥3 (percent of animal days with a mucositis score ≥3)” value ([1]; 0.24 mg/mL) was 53.65%, the “Days <3 (animal days with a mucositis score <3)” value ([1]; 0.24 mg/mL) was 89 and the “Days ≥3 (animal days with a mucositis score ≥3)” value ([1]; 0.24 mg/mL) was 103. The “peak mean mucositis score (scale 0-5)” value ([1]; 0.24 mg/ml topical b.i.d., Days 16 and 18) was 3.13, the “Days <3 (animal days with a mucositis score <3)” value ([1]; 0.75 mg/mL) was 120 and the “Days ≥3 (animal days with a mucositis score ≥3)” value ([1]; 0.75 mg/mL) was 72. For the same molecule, the “peak mean mucositis score (scale 0-5)” value [1, 3] was 2.63, the “days of improvement in mucositis scores compared to the Vehicle control group” value [1] was “multiple days” and the “TEER following disruption by HK E. coli” value [2, 4] was 89.1%.
